From article PMC3852207, “The Structure of the RLIP76 RhoGAP-Ral Binding Domain Dyad: Fixed Position of the Domains Leads to Dual Engagement of Small G Proteins at the Membrane” (Structure(London, England:1993), 2013)

B1: Q61L Cdc42·[3H]GTP (natural protein)
chain: not shown
notes: Cdc42, GTPase-deficient mutant Q61L, loaded with [3H]GTP; Q61L is stated for the SPA experiments in general; also called [3H]GTP·Cdc42
B2: His-RLIP76 GAP insert (RLIP76 GAP domain with the F-G loop of p50 RhoGAP) (domain or fragment)
chain: PNLKPIFGIPLADAVERTMMYDGIRLPAVFRECIDYVEKYGMKCEGIYRVSGIKSKVDELKAAYDREESTNLEDYEPNTVASLLKQYLRDLPENLLTKELMPRFEEACGRTTETEKVQEFQRLLKELPECNYLLISWLIVHMDHVIAKELETKMNIQNISIVLSPTVLWAKDAAITLKAINPINRVLYVFFTHVQELFGNVVLKQVMKPL
notes: Made from the pET16b RLIP GAP domain construct; also called GAP insert mutant; RLIP76 GAP insert domain
B3: RalB (natural protein, UniProt P11234 1-206, looked up)
chain: MAANKSKGQSSLALHKVIMVGSGGVGKSALTLQFMYDEFVEDYEPTKADSYRKKVVLDGEEVQIDILDTAGQEDYAAIRDNYFRSGEGFLLVFSITEHESFTATAEFREQILRVKAEEDKIPLLVVGNKSDLEERRQVPVEEARSKAEEWGVQYVETSAKTRANVDKVFFDLMREIRTKKMSENKDKNGKKSSKNKKSFKERCCLL
notes: RalB small GTPase

What was measured:
[1] = molecular target: B2; assay: scintillation proximity assay (competition); competitor titrated into 30 nM [3H]GTP·Rac1 or [3H]GTP·Cdc42 and 30 nM GST-p50 RhoGAP immobilised on fluoromicrospheres via an anti-GST antibody; partial competition model for RLIP76 GAP and didomain, full competition for GAP insert and free p50 RhoGAP; details: both partners purified
[2] = molecular target: T1, GST-PAK1 (UniProt Q13153 1-545); assay: scintillation proximity assay (direct); GST-PAK1 on SPA beads as control binding partner; concentration of Q61L Rac1/Cdc42·[3H]GTP varied; apparent Kd; details: both partners purified
T1 construct: PAK1, positive control effector of Cdc42 and Rac1

[3] = molecular target: Q61L Rac1·[3H]GTP (UniProt P63000 1-192, Q61L); assay: scintillation proximity assay (competition); competitor titrated into 30 nM [3H]GTP·Rac1 or [3H]GTP·Cdc42 and 30 nM GST-p50 RhoGAP immobilised on fluoromicrospheres via an anti-GST antibody; partial competition model for RLIP76 GAP and didomain, full competition for GAP insert and free p50 RhoGAP; details: both partners purified
[4] = molecular target: T2, His-RLIP76 GAP-GBD didomain (residues 184-446) (human, UniProt Q15311 184-446); assay: not stated; data not shown
T2 construct: Construct details are in Rajasekar et al., 2012; also called RLIP76 didomain; RhoGAP-GBD didomain; source: expressed and purified as described previously (Rajasekar et al., 2012)
T2 sequence (looked up): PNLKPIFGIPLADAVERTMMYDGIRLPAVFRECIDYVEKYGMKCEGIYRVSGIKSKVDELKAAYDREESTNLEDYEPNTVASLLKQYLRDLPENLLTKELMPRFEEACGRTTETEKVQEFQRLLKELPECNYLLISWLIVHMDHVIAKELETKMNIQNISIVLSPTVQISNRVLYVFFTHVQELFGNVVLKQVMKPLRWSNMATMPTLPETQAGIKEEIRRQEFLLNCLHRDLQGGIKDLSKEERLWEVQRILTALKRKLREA

Work on B1 yielded a Kd [1] of 1270 nM and a Kd [2] of 32 nM.

B2 gave a Kd [3] of 1440 nM.

For B3, the Kd [4] was ~200 nM.
